According to the nanobody polyreactivity screen of Harvey et al. (2022):

Experiment: yeast display, Sf9 membrane polyspecificity reagent, FACS + sequencing; frameworks hold sequencing errors
Outline: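 Galactose induction of a Saccharomyces cerevisiae BJ5465 synthetic nanobody display library ran 36–48 hours. The cells were then stained for 1 hour at 4 °C with 10% biotinylated, detergent-solubilized Sf9 membrane reagent, pulled down on streptavidin microbeads and FACS-sorted into low and high (top ~1%) gates on expression and reagent-binding fluorescence. Labels for polyreactivity follow the gate of origin.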

Sequence | polyreactivity (PSR sort gate)
QDQLVESGGGLVQAGGSLRLSCAASGGIFFIYVMGWYRQAPGKERELVAAISGSGGTTYYADSVKGRFTISRDNAKNTVYLQMNSLKPEDTAVFYCNRVSDYTLYYWGQGTQVTVSS | low polyreactivity
QDQLVESGGGLVQAGGSLRLSCAASGGTFKFYAMGWYRQAPGKERELVAAITSGGSTSYADSVKGRFTISRDNAKNTVYLQMNSLKPEDTAVYYCNADFYQRYGVFSSRRYYYWGQGTQVTVSS | high polyreactivity
QDQLVESGGGLVQAGGSLRLSCAASGGTFPEYALGWYRQAPGKERELLAAIRTDGRTYYADSVKGRFTISRDNAKNTVYLQMNSLKPEDTAVYYCAADSRYSRPYTWRKAYDYLGQGTQVTVSS | low polyreactivity
QDQLVESGGGLVQAGGSLRLSCAASGGTFTVYAMGWYRQAPGKERELVATINWSRGSTYYADSVKGRFTISRDNAKNTVYLQMKSLKPEDNAVYYCNAAWQYKSVEYWGQGTQVTVSS | low polyreactivity
QDQLVESGGGLVQAGGSLRLSCAASGIIFARYAMGWSRPAPGKERELVAAITSGGGSTYYADSVKGRFTISRDNAMNTVYLQMYSLKPEDTAVYYCAADYQTIGWGYDYWGQGTQVTVSS | low polyreactivity
QDQLVESGGGLVQAGGSLRLSCAASGIIFKFNVMGWYRQAPGKERELVAAISTGGSTYYADSVKGRFTISRDNAKNTVYLQMNSLKPEDTAVYYCNAVSPLSIWSSRDGWYGYWGQGTQVTVSS | high polyreactivity
QDQLVESGGGLVQAGGSLRLSCAASGIIFYRYAMGWYRQAPGKERELVAAITWSGVSTSYADSVKGRFTISRDNAKNTVYLQMNSLKPEDTAVYYCNKDPGTLYGDMDSWGQGTQVTVSS | low polyreactivity
QDQLVESGGGLVQAGGSLRLSCAASGIIIVAYAMGWYRQAPGKERELVAAITVSGARTYYADSVKGRFTISRDNAKITVYFQMNSLKPEDTAVYYCAARYAGGGVLGHGYWGQGTQVTVSS | high polyreactivity
QDQLVESGGGLVQAGGSLRLSCAASGIILPRYAMGWYRQAPGKERELVAAISRGGGTYYADSVKGRFTISRDNAKNSVYLQMNSLKPEDTAFYYCDAAYVFVGSSHYYWGQGTQVTVSS | high polyreactivity
QDQLVESGGGLVQAGGSLRLSCAASGINFKYYAMGWYRQAPGKERELVAAISRSGSSTYYADSVKGRFTISRDNAKNTVYLQMNSLIPEDTSVYYCADQPYDSNYGNSGYWGQGTQVTVSS | high polyreactivity
QDQLVESGGGLVQAGGSLRLSCAASGITFPKYAMGWYRQAPGKERELVAAITKSGGSTYYADSVKGRFTISRDNAKNTVYLQMNSLKPEVTAVYYCAARPRYGEYDYWGQGTQVTVSS | high polyreactivity
QDQLVESGGGLVQAGGSLRLSCAASGITLFYYAMGWYRQAPGKERELVAVISASGGSTYYADSVKGRFTISRDNAKNTVYLQMNSLKQEDTAVYYCAAVAYWRSSSWYYYWGLGTQVTVSS | high polyreactivity
QDQLVESGGGLVQAGGSLRLSCAASGLIFGGYDMGWYRQAPGKERELVAAISCDDGDTYYADSVKGRFTISRDNAKNTVYLQMNSLKPEDTAVYYCAAESLSGAHGYWGQGTQVTVSS | low polyreactivity
QDQLVESGGGLVQAGGSLRLSCAASGLIFRHYAMGWSRQAPGKERELVAAITWSGGSTYYADSVKGRFTISRDNAKNTVYLQMNSLKAEDTAVYYCAAEGTGYSVGWQYGYWGQGTQVTVSS | low polyreactivity
QDQLVESGGGLVQAGGSLRLSCAASGLIFVGYALGGYRQAPGKERELVAAITSGGSTKYADSVKGRFTSSRDNAKNTVYLQMNSLKPEDTAVYYCAASGWRNWWSARNYYWGQGTQVTVSS | high polyreactivity
QDQLVESGGGLVQAGGSLRLSCAASGLISSINAMGWYRQAPGKERELVAAISFSGGRTYYADSVKGRFTISRDNAKNTVYLQMNSLKPEDTAVYYFNAVSGGHRSRYGYWGQGTLVTVSS | high polyreactivity
QDQLVESGGGLVQAGGSLRLSCAASGLTFFYYAMGWSRQSPGKERELVAAISRGGSTYYADSVKGRFTISRDHAKYTVYLQMKSLNPEDTAVYYCAAKTYQKEIVRPMYYWGQGTQVTVSS | high polyreactivity
QDQLVESGGGLVQAGGSLRLSCAASGLTFGRYAMGWYRQAPGKERELVAAITWNGDGTYYADSVKGRFTISRDNAKNTVYLQMNSQKPEDSAVFYCAADYYTYLYGRYNYWGQGTQVTVSS | low polyreactivity
QDQLVESGGGLVQAGGSLRLSCAASGLTFGYYAMGWYRQAPGKERELVAAINSGGSTYYADSVKGRFTISRDNAKNTVYFQMNSLKPEDTAVYYCNATLDLYDSVSYTGPGMDYWGQGTQVTVSS | low polyreactivity
QDQLVESGGGLVQAGGSLRLSCAASGNIFPSYVMGWYRQAPGKERELVAAITWKGGSTYYADSVKGRFTISRDNAKNTVYLQMNSLKPEDTAVYYCNAVGNLYSRDDYWGQGTQVTVSS | low polyreactivity
QDQLVESGGGLVQAGGSLRLSCAASGNIFVTNAMGWYRQAPGKERELVAAITYSGGTTYYADSVKGRFTISRDNAKNTVYLQMNSLKPEDTAVYYCAADFATWTYYPYRLDEFDYWGQGTQVTVSS | low polyreactivity

Sequence | polyreactivity (PSR sort gate)
QDQLVESGGGLVQAGGSLRLSCAASGRIFDTNAMGRYRQAPGKERELVATNTRSAGRTYYADSVKGRFTISRDNAKIKVFLQMNILKPEDTAVYFCNADWGPTYEIYDSWGQGTQVTVSS | low polyreactivity
QDQLVESGGGLVQAGGSLRLSCAASGRIFGWYAMGWYRQAPGKERELVAAISNDGSTNYADSVKGRFTISRDNAKNTVYLQMNSLKPEDTAVYYSAARFYRSSYGWYGYWGQGTQVTVSS | high polyreactivity
QDQLVESGGGLVQAGGSLRLSCAASGRIFIVYAMGWYRQAPGKERELDAAISRNGGRTYYADSVKGRFTISRDNAKNSVDLQMNSLKPEDTSVYYCNSVALYPYTTYDYWGQGSQVTVSS | high polyreactivity
QDQLVESGGGLVQAGGSLRLSCAASGRIFRPNTMGWYRQAPGKERELVASISLSAGSTYYADSVKGRFTISRDNAKNTVYLQMNSLKPEDTAVYYCNATYLSWYRYKYNYWGQGTQVTVSS | low polyreactivity
QDQLVESGGGLVQAGGSLRLSCAASGRIFTGNAMGWYRQAPGKERELVAAITKSGGSTYYADSVKGRFTISRDNAKNTVYLQMNSLKPEDTAVYYCAATRYLHYVYKYGYWGQGTQVTVSS | high polyreactivity
QDQLVESGGGLVQAGGSLRLSCAASGRIFVYYVMGWYRQAPGKERELVAAITYSGGSTYYADSVKVRFTISRDNAKNTVYLQMNSLKPEDTAVYACNKVDAFGIVRLYYWGQGTQVTVSS | low polyreactivity
QDQLVESGGGLVQAGGSLRLSCAASGRTFGYNAMGWYRQAPGKERELVAANNWSGASTYYADSVKGRFTISRDNAKNTVYLQMNSLKPDDSAVYYCAADYSYIYGFDYWGQGTQVTVSS | low polyreactivity
QDQLVESGGGLVQAGGSLRLSCAASGRTFGYYVMGWYRQAPGKERELVAAISRSGGTTYYADSVKGRFTISRDNAKNTVYLQMNSLKPEDTAVYYCATDSRTGYDYWGQGTQVTVSS | high polyreactivity
QDQLVESGGGLVQAGGSLRLSCAASGRTFIRNAMGWYRQAPGKERELVAAISRSGGRTYYADSVKGRFTISRDNAKNTVYLQMNSLKPEDTAVYYCAAGSYQRYAFDYWGQGTQVTVSS | high polyreactivity
QDQLVESGGGLVQAGGSLRLSCAASGRTFQYNAMGWDRQARGSERELVAAISSSGGSTYYADSVKGRFTISRDNAKNTVYLQMNSLKPEDTAVYYCNAYSQSWNFYGDGDYWGQGTQVTVSS | low polyreactivity
QDQLVESGGGLVQAGGSLRLSCAASGRTFRYNTMGWYRQAPGKERELVASISWGGGSTYYADSVKGRFTISRDTAKNTVYLQMNSLKPEDTAVYYCAARRWGQFRFEYWGQGTQVTVSS | high polyreactivity
QDQLVESGGGLVQAGGSLRLSCAASGRTFSYNAMGWYRQAPRKERELVAAISYDGGRTYYADSVKGRFTISRDNAKNTFYLQMNSLKPEDTAVYYCAAYPYRGPHTWTIGDYWGQGTQVTVSS | low polyreactivity
QDQLVESGGGLVQAGGSLRLSCAASGRTFWAYAMGWYRQAPGKEREVVASIRSSGTSTYYADSVMGRFTISRDNAKNSVYLQMNSLKPEDTAVYYCAATSGYARYYHREYWGQGTQVTVSS | high polyreactivity
QDQLVESGGGLVQAGGSLRLSCAASGRTFYYAMGWYRQAPGKERYADSVKGRFTISRDNAKNTVYLQMNSLKPEDTAVYYCAAKVPEPPSLDESDYWGQGTQVTVSS | low polyreactivity
QDQLVESGGGLVQAGGSLRLSCAASGRTIKTYAMGWYRQAPGKVRELVAAIRRRGGSTYYADSVKGRFTISRDNAKNTVYLQMHSLKPEDTAVYYCAAGYVTYRDAHVSMDYCGQGTQVTVSS | high polyreactivity
QDQLVESGGGLVQAGGSLRLSCAASGRTISYYAMGWYRQAPGKERELVAAISGGGSTNYADSVKGRFTISRDNAKNTVYLQMNSLKPEDTAVYYCNARVYGVFRRRVNYWGQGTQVTVSS | high polyreactivity
QDQLVESGGGLVQAGGSLRLSCAASGSIFDIYAMGWYRQAPGKEREMVASIRRRGGSTYYADSVKGRFTISRDNAKNTVYLQMNSLKPEDTAVYDCNARRVWLRTTWTNWPERGYWGQGTQVTVSS | high polyreactivity
QDQLVESGGGLVQAGGSLRLSCAASGSIFDPYTMGWYRQAPGKERELVAAINWSGGSTSYADSVKGRFTISRDNAKNPVYLQMNSLKPEDTAVYYCNADPHGYYGYGYDYWGQGTQVTVSS | low polyreactivity
QDQLVESGGGLVQAGGSLRLSCAASGSIFGVYAMGWNRQAPGKERELVAAITRGGRTYYADSVKGRFTISRDNAKNTVYLQMNCLKPEDTAVYYCAALPLRERYGYWGQGTQVTVSS | high polyreactivity
QDQLVESGGGLVQAGGSLRLSCAASGSIFLKYVMGVYRPEPGKERELVASISSGGGTYYADSVKGRFTISRDNAKNTVYLQMNILKPEDTAVYYCARRPYRGSYAFDYWGQGTQVTVSS | low polyreactivity
